Legend:
[1] = system: G401 cells; test: Inhibitory effect on apoptosis induced by carcinostatic (Hoechst staining method); assay type: cell-based
Method: Five groups were prepared; the untreated group, the cisplatin (100 μM) treated group, the MK (1, 10, or 100 ng/mL)+cisplatin (100 μM) treated groups.
G401 cells (2×10^4) were seeded on a 3.5 cm-dish and cultured in 10% FBS/DMEM overnight. 10% FBS/DMEM was added to each dish and further cultured for 24 to 48 hours. The cells were washed twice and cultured in 0.1% FBS/DMEM overnight. MK was added to the MK treatment groups to 1, 10, or 100 ng/ml and cultured in 0.1% FBS/DMEM for 6 hours. Cisplatin was added to the cisplatin treatment groups to 100 μM and cultured in 0.1% FBS/DMEM for 2 hours. After culturing, the cells were washed three times. Then, human MK was added to the MK treatment groups to 1, 10, or 100 ng/ml and cultured in 0.1% FBS/DMEM for 12 or 24 hours.
The cells were fixed with a fixative (methanol:acetic acid=3:1) at room temperature for 10 min, and dried at room temperature for 30 min. Hoechst 33342 (ICN Biomedicals; Ohio, USA) was added thereto to stain the cells at room temperature for 10 to 30 min. The cells were washed with water three times, wind-dried, and mounted onto a fluorescent microscope (Olympus, BX60) and photographed. FIGS. 2A, 2B, and 2C show the untreated group, the cisplatin (100 μM) treated group, and the MK (100 ng/mL)+cisplatin (100 μM) treated group, which were all cultured for 12 hours. […]

[2] = system: Bcl-2; test: Effect for enhancing Bcl-2 expression (Western blotting); assay type: cell-based; conditions: G401 cells
Method: The effect of MK on the expression of the Bcl-2 gene was examined. Six groups were prepared; the untreated group, the cisplatin (100 μM) treated group, the human MK (100 ng/ml) treated group, the human MK (100 ng/ml)+cisplatin (100 μM) group, the mouse MK (100 ng/ml) treated group, and the mouse MK (100 ng/ml)+cisplatin (100 μM) treated group.
G401 cells were seeded on a 3.5 cm-dish and cultured in 10% FBS/DMEM until the cells became almost confluent. The cells were washed twice and cultured in 0.1% FBS/DMEM overnight. Then, human MK or mouse MK (JP-A No. Hei 8-196293) was added to the MK treatment groups at 100 ng/ml and cultured for six hours. Cisplatin was added to the cisplatin treatment group to 100 μM, and cultured for 2 hours. After culturing, the cells were washed with 0.1% FBS/DMEM three times, cultured in 0.1% FBS/DMEM for 10 hours, and washed with PBS three times.
Two hundred microliters of buffer [1% Triton X-100, 150 mM NaCl, 10 mM Tris (pH 7.4), 1.0 mM EGTA, 0.5% NP-40, 1 mM PMSF, 0.1 μg/ml apiotinin, 40 nM Iewpeptin] were added to each dish and kept on ice for 20 min. The cells in each dish were detached by a scraper, and mixed 8 to 10 times using a syringe with a 26-gauge needle. The cells of each dish were centrifuged in a centrifuge tube at 4° C. at 12000 rpm for 30 min. The precipitated proteins were quantified (BCA Kit; PIERCE). The precipitate prepared from each dish (50 μg) was analyzed by Western blotting using anti-Bcl-2 monoclonal antibody (500×) (Dako; Denmark) and anti-mouse HRP antibody (Jackson Immuno Research) (FIG. 6). The band in each lane is numerically shown (FIG. 7).

[3] = system: hippocampal neurocytes; test: Apoptosis-inhibitory effect in vivo, transient forebrain ischemia, MK administration after the ischemic injury; design: species or system Mongolian gerbil; conditions: counted seven days after injury
Method: MK (2.0 μg) was injected into the ventricle of a Mongolian gerbil transient forebrain ischemia model 2, 4, 6, 12, or 24 hours after the ischemic injury. The numbers of surviving hippocampal neurocytes were counted seven days after the ischemic injury (FIG. 16). When MK was administered at 2 hours after the injury, the number of surviving neurocytes decreased, compared to the Sham-op group, while it was considerably higher than the saline administrated group.
The numbers of surviving hippocampal neurocytes in the groups administered 2, 4, 6, 12, or 24 hours after the ligation were 120±36 (n=4), 90±23 (n=6), 80±13 (n=6), 86±34 (n=6), and 93±22 (n=4) cells/mm, respectively (FIG. 16).

B1: MK: midkine, a heparin-binding growth and differentiation factor; human MK protein (SEQ ID NO: 3; or recombinant, secreted by yeast) (protein, UniProt P21741 21-143, looked up)
Midkine: VAKKKDKVKKGGPGSECAEWAWGPCTPSSKDCGVGFREGTCGAQTQRIRCRVPCNWKKEFGADCKYKFENWGACDGGTGTKVRQGTLKKARYNAQCQETIRVTKPCTPKTKAKAKAKKGKGKD
- numbers of cells containing Hoechst 33342-stained nuclei with condensed chromatin and fragmented nuclei ([1]; MK 100 ng/mL + cisplatin 100 μM, 12 and 24 hours, compared to cisplatin alone): remarkably decreased
- Frequency of apoptotic cell death (Hoechst 33342) ([1]; MK 1, 10 or 100 ng/ml + cisplatin 100 μM, 12 and 24 hours culture, compared with the cisplatin treated group): decreased in a MK concentration-dependent fasion
- expression of Bcl-2 ([2]; MK 100 ng/ml, no cisplatin): enhanced the expression of Bcl-2
- concentration showing the Bcl-2 enhancing effect ([2]; data not shown): ≥ 10 ng/mL
- numbers of surviving hippocampal neurocytes ([3]; MK 2.0 μg into the ventricle 2 hours after the ligation): 120±36 cells/mm
- numbers of surviving hippocampal neurocytes ([3]; MK 2.0 μg into the ventricle 4 hours after the ligation): 90±23 cells/mm
- numbers of surviving hippocampal neurocytes ([3]; MK 2.0 μg into the ventricle 6 hours after the ligation): 80±13 cells/mm
- numbers of surviving hippocampal neurocytes ([3]; MK 2.0 μg into the ventricle 12 hours after the ligation): 86±34 cells/mm
- numbers of surviving hippocampal neurocytes ([3]; MK 2.0 μg into the ventricle 24 hours after the ligation): 93±22 cells/mm

Reference: patent US20050079151A1, “Therapeutic agents for apoptosis-related diseases” (priority 1998, published 2005)
